Experiments:
[1] = molecular target: T1, Human PD-1 expressed on CHO-K1 cells (CHO-K1/hPD-1) (human, UniProt Q15116 25-288); assay: FACS, CHO-K1/hPD-1 cells
T1 construct: whole, on cells; also called CHO-K1 cells overexpressing human PD-1
Summary of the method: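 CHO-K1 cells overexpressing human or cynomolgus PD-1 were incubated 1 h at 4 °C with antigen-binding proteins: 8-11 concentrations, 5-fold dilutions, top final 100 nM or 300 nM, hIgG control. Binding was detected with Alexa Fluor 488 anti-human IgG (30 min, 4 °C) and read by flow cytometry.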

[2] = molecular target: T2, Human PD-1-His protein (ACROBiosystems, # PD1-H5221) (human, UniProt Q15116 25-167); assay: ELISA, plate-coated human PD-1-His
T2 construct: Bought reagent, coated on the ELISA plate; also called human PD-1 protein; human PD-1 antigen; not shown: His tag
T2 sequence (Q15116 25-167 limits assumed): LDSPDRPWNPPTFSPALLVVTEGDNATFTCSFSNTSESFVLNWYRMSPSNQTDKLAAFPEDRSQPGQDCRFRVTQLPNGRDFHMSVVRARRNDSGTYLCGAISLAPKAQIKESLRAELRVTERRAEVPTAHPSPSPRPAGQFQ
Experimental: Human PD-1-His protein (ACROBiosystems, # PD1-H5221) was diluted to 2 μg/mL with PBS, added to a 96-well plate (Corning, cat#9018) at 100 μL/well, and incubated at 4° C. overnight. After the liquid was discarded, the plate was washed 3 times with PBST buffer (pH 7.4, containing 0.05% Tween-20), and 250 μL of 2% BSA blocking buffer was added. The plate was incubated at 37° C. for 1 h. The blocking buffer was discarded, and the plate was washed 3 times with PBST buffer (pH 7.4, containing 0.05% Tween-20). The test antigen-binding protein was 5-fold diluted in sequence at an initial concentration of 100 nM for a total of 8-10 concentration gradients, and added at 100 μL/well. The plate was incubated at 37° C. for 1 h. An isotype antibody was taken as a control. After the plate was washed 3 times with PBST buffer (pH 7.4, containing 0.05% Tween-20), a 4000-fold diluted goat anti-human HRP secondary antibody (Invitrogen, #A18805) was added. The plate was incubated away from light at 37° C. for 1 h. After the plate was washed 3 times with PBST buffer (pH 7.4, containing 0.05% Tween-20), TMB (Biopanda, # TMB-S-003) was added at 100 μL/well. The plate was left away from light at room temperature for about 5 min. The reactions were terminated by adding 50 μL of stop buffer (BBI life sciences, #E661006-0200) to each well, and the absorbance values at 450 nm (OD450) were measured using a microplate reader (PerkinElemer, #Enspire). The half maximal effective concentration (EC₅₀) was calculated from the measurement results.

[3] = molecular target: T3, Human PD-1 protein with histidine and avi tags (ACRO Biosystems, PD1-H82E4) (human, UniProt Q15116 25-167); assay: BLI (Octet Red96e), PD-1 captured on SA sensor, 1:1 local fit
T3 construct: Captured on streptavidin (SA) sensors in the BLI assay; not shown: histidine and avi tags
T3 sequence (Q15116 25-167 limits assumed): as above

T1 sequence (Q15116 25-288): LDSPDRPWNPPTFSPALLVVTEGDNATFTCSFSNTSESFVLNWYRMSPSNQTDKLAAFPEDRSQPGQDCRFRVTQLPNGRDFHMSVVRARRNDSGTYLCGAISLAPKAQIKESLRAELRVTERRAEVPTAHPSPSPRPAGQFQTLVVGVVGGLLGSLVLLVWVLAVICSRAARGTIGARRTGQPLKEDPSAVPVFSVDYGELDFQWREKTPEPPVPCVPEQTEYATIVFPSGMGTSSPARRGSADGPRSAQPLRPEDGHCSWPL

EC50 [1]: 8.94 nM
MFI Maximum [1]: 950000
EC50 [2]: 0.043 nM
OD Maximum [2]: 2.85
Kd [3]: 77 nM
koff [3]: 0.000768 s⁻¹
kon [3]: 9970 M⁻¹ s⁻¹
B1: PR002481 (antibody, human IgG1, V domains shown)
VH: EVQLVETGGGLIQPGGSLRLSCAASGFNVSSHYMSWVRQAPGKGREWVSIIDGGGSTYYADSVKGRFTISRDNSKNRLYLQMNSLRAEDTAMYYCARATAVAEKNGYNYPFNYWGQGTLVTVSS
notes: Heavy-chain-only antibody (HCAb), human IgG1 Fc; two heavy chains, no light chain; also called R4004P556D1; anti-PD1 R4004P556D1 HCAb hG1
